Reference: publication PMC12638876

Experiments:
[1] = molecular target: CXE15 C14S fused to split YFP (Arabidopsis thaliana) (UniProt Q9FG13); experiment: split reporter
[2] = molecular target: CXE15 C14S mutant (Arabidopsis thaliana) (UniProt Q9FG13); experiment: MST
[3] = molecular target: full-length Arabidopsis thaliana CXE15 (Arabidopsis thaliana) (UniProt Q9FG13); experiment: MST

Question: Which fold reduction of BiFC fluorescence against wild-type CXE15 [1] does the source give for “CXE15 C14S fused to split YFP (from UniProt Q9FG13 1-329) (enzyme)” here?
Answer: The fold reduction of BiFC fluorescence against wild-type CXE15 was greater than 2 fold.

Question: Which Kd [2] does the source give for “CXE15 C14S mutant (from UniProt Q9FG13 1-329) (enzyme)” here?
Answer: Its Kd is 4.5 µM.

Question: Which Kd [3] does the source give for “full-length Arabidopsis thaliana CXE15 (from UniProt Q9FG13 1-329) (enzyme)” here?
Answer: Its Kd is 1.62 µM.
